Test results as given in the supplement of paper PMC10567573.

B1: MIA2 (parent)
chain: DMVSNIELPTRIHEEVYFEPSSSK

Variants of: B1
Assay: protein stability index of a GFP-peptide fusion (GPS, HEK-293T) (PSI 1-6); higher = more stable
Details: c terminus: a fixed tail appended
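Further: lentivirally expressed fusions sorted by FACS into six bins by GFP to DsRed ratio, PSI derived from sequencing read proportions per bin multiplied by bin number.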

Variant | protein stability index
DMVSNIELPTRIHNEVYFEPSSSK [E14N] | 3.82
DMVSNIELPTRIHLEVYFEPSSSK [E14L] | 2.04
DMVSNIELPLRIHEEVYFEPSSSK [T10L] | 4.11
DMVSNIELPKRIHEEVYFEPSSSK [T10K] | 3.4
DMVSNIELPDRIHEEVYFEPSSSK [T10D] | 4.74
DMVSNIELPRRIHEEVYFEPSSSK [T10R] | 3.63
DMVSNIELPWRIHEEVYFEPSSSK [T10W] | 3.27
DMVSNIELPSRIHEEVYFEPSSSK [T10S] | 4.13
DMVSNIELPTRIHEEVYFEPSHSK [S22H] | 4.35
DMVSNIELPTRIHEEVYFEPSWSK [S22W] | 3.17
DMVSNIELPTRIHEEVYFEPSTSK [S22T] | 4.03
DMVSNIELPTRIHEEVYFEPSFSK [S22F] | 3.37
DMVSNIELPTRIHEEVYFEPSQSK [S22Q] | 4.13
DMVSNMELPTRIHEEVYFEPSSSK [I6M] | 4.32
DMVSNTELPTRIHEEVYFEPSSSK [I6T] | 4.48
DMVSNNELPTRIHEEVYFEPSSSK [I6N] | 4.77
DMVSNWELPTRIHEEVYFEPSSSK [I6W] | 3.32
DMVSNIELPTRIHEEVYFQPSSSK [E19Q] | 3.29
DMVSNIELPTRIHEEVYFRPSSSK [E19R] | 3.29
DMVSNIELPTRIHEEVYFKPSSSK [E19K] | 3.54
DMVSNIELPTRIHEEMYFEPSSSK [V16M] | 3.46
DMVSNIELPTRIHEELYFEPSSSK [V16L] | 4.09
DMVSNIELPTRIHEENYFEPSSSK [V16N] | 4.47
DMVSNIELPTRIHEEIYFEPSSSK [V16I] | 3.87

Variant | protein stability index
DMVSNIELPTRIHEETYFEPSSSK [V16T] | 4.05
DMVSNIELPTRIHEEEYFEPSSSK [V16E] | 5.02
DMVSNIELPTRIHEECYFEPSSSK [V16C] | 4.33
DMVSNIEKPTRIHEEVYFEPSSSK [L8K] | 3.83
DMVSNIECPTRIHEEVYFEPSSSK [L8C] | 4.02
DMVSNIEWPTRIHEEVYFEPSSSK [L8W] | 4.22
DMVSNIEMPTRIHEEVYFEPSSSK [L8M] | 3.46
DMVSNIETPTRIHEEVYFEPSSSK [L8T] | 4
DMVSNIEIPTRIHEEVYFEPSSSK [L8I] | 4.04
DMVSNIELPTRIHEEVYFEHSSSK [P20H] | 4.06
DMVSNIELPTRIHEEVYFEDSSSK [P20D] | 4.6
DMVSNIELPTRIHEEVYFECSSSK [P20C] | 3.42
DMVSNIELPTRIHEEVYFEISSSK [P20I] | 3.02
DMVSNIELPTRIHEEVYFEFSSSK [P20F] | 2.42
DMVSNIELPTRIHEEVYFEASSSK [P20A] | 3.69
DMVSNIELPTRIHEEVYFEPSSST [K24T] | 4.02
DMVSNIELPTRIHEEVYFEPSSSS [K24S] | 3.95
DMVSNIELPTRIHEEVYFEPSSSL [K24L] | 3.84
DMVSNIGLPTRIHEEVYFEPSSSK [E7G] | 3.58
DMVSNIRLPTRIHEEVYFEPSSSK [E7R] | 3.33
DMVSNIPLPTRIHEEVYFEPSSSK [E7P] | 3.34
DMVSNIYLPTRIHEEVYFEPSSSK [E7Y] | 2.11
DMVSNIILPTRIHEEVYFEPSSSK [E7I] | 2.88
DMKSNIELPTRIHEEVYFEPSSSK [V3K] | 4.02

Variant | protein stability index
DMVSNIELPTRIHEEVYFEPWSSK [S21W] | 3.38
DMVSNIELPTRIHEEVYFEPISSK [S21I] | 4
DMVSNIELPTRIKEEVYFEPSSSK [H13K] | 3.64
DMVSNIELPTRIGEEVYFEPSSSK [H13G] | 4.05
DMVSNIELPTRIREEVYFEPSSSK [H13R] | 3.8
DMVSNIELPTRIFEEVYFEPSSSK [H13F] | 3.81
DMVSNIELPTRDHEEVYFEPSSSK [I12D] | 4.79
DMVSNIELPTRCHEEVYFEPSSSK [I12C] | 3.22
DMVSAIELPTRIHEEVYFEPSSSK [N5A] | 4.14
DMVSLIELPTRIHEEVYFEPSSSK [N5L] | 3.19
DMVSFIELPTRIHEEVYFEPSSSK [N5F] | 3.95
DMVSTIELPTRIHEEVYFEPSSSK [N5T] | 4.47
DMVSCIELPTRIHEEVYFEPSSSK [N5C] | 4.04
DMVSYIELPTRIHEEVYFEPSSSK [N5Y] | 2.46
DMVSNIELPTRIHEYVYFEPSSSK [E15Y] | 3.22
DMVSNIELPTRIHEFVYFEPSSSK [E15F] | 2.62
DMVSNIELPTRIHEGVYFEPSSSK [E15G] | 3.84
DMVSNIELPTRIHEMVYFEPSSSK [E15M] | 2.72
DMVSNIELPTRIHERVYFEPSSSK [E15R] | 2.96
CMVSNIELPTRIHEEVYFEPSSSK [D1C] | 2.86
FMVSNIELPTRIHEEVYFEPSSSK [D1F] | 2.87
WMVSNIELPTRIHEEVYFEPSSSK [D1W] | 2.63
DMVSNIELPTRIHEEVYEEPSSSK [F18E] | 4.68
DMVSNIELPTRIHEEVYSEPSSSK [F18S] | 4.62

Variant | protein stability index
DMVSNIELPTRIHEEVYMEPSSSK [F18M] | 4.48
DMVSNIELPTRIHEEVYWEPSSSK [F18W] | 3.52
DMVMNIELPTRIHEEVYFEPSSSK [S4M] | 3.51
DMVLNIELPTRIHEEVYFEPSSSK [S4L] | 3.12
DMVANIELPTRIHEEVYFEPSSSK [S4A] | 3.97
DPVSNIELPTRIHEEVYFEPSSSK [M2P] | 5.15
DVVSNIELPTRIHEEVYFEPSSSK [M2V] | 3.64
DFVSNIELPTRIHEEVYFEPSSSK [M2F] | 3.28
DCVSNIELPTRIHEEVYFEPSSSK [M2C] | 4.99
DMVSNIELFTRIHEEVYFEPSSSK [P9F] | 3.01
DMVSNIELMTRIHEEVYFEPSSSK [P9M] | 3.35
DMVSNIELCTRIHEEVYFEPSSSK [P9C] | 3.53
DMVSNIELITRIHEEVYFEPSSSK [P9I] | 3.3
DMVSNIELPTRIHEEVYFEPSSWK [S23W] | 3.08
DMVSNIELPTRIHEEVYFEPSSYK [S23Y] | 4.18
DMVSNIELPTRIHEEVYFEPSSPK [S23P] | 3.67
DMVSNIELPTRIHEEVYFEPSSGK [S23G] | 4.28
DMVSNIELPTRIHEEVYFEPSSAK [S23A] | 3.2
DMVSNIELPTRIHEEVYFEPSSCK [S23C] | 4
DMVSNIELPTRIHEEVDFEPSSSK [Y17D] | 4.41
DMVSNIELPTRIHEEVGFEPSSSK [Y17G] | 4.47
DMVSNIELPTRIHEEVHFEPSSSK [Y17H] | 4.29
